From PMC9536601 come the findings set out here.

For orientation: Kd means a measure of binding affinity in units of concentration. Read a high Kd as a looser complex. The koff is the rate constant with which the complex falls apart. A low value points to a long-lived complex. One may read the kon as the second-order rate constant of association. High values mean faster complex formation, low ones slower complex formation.

The target of experiment [1] is hexon of the Ad5 vector Ad5.6 (on virions) (human adenovirus 5) (UniProt P04133). Nature of the experiment: SPR; Biacore T200; about 300 to 5,000 RU of Ad virions immobilised on a CM5 chip, coagulation factors flowed over at four concentrations, 50 uL/min; running buffer 10 mM HEPES, 150 mM NaCl, 1 mM CaCl2, 0.5 mM MgCl2, 0.1% BSA, 0.05% polysorbate 20, pH 7.4; regeneration with 3 mM EDTA; global fit to a 1:1 kinetic interaction model, double referencing. On the technique in general: In SPR one partner is held on a chip, and binding of the other changes the refractive index at the surface.

The target in experiment [2] is chimeric hexon of the Ad5 vector Ad5:H57.1 (Ad5 hexon with residues 112-593 from Ad57 hexon, on virions) (human adenovirus 5 | human adenovirus 57) (UniProt P04133). Described as above.
Experiment [3] deals with chimeric hexon of the Ad5 vector Ad5:H1.2 (Ad1 hexon section with HVR7 mutations, on virions) (human adenovirus 5 | human adenovirus 1) (UniProt P04133). The experiment is described as above.
The target in experiment [4] is hexon of wild-type human adenovirus type 1 (on virions) (human adenovirus 1). The description is as above.
In experiment [5] the target is chimeric hexon of the Ad5 vector Ad5:H6.1 (Ad5 hexon with residues 112-593 from Ad6 hexon, on virions) (human adenovirus 5 | human adenovirus 6) (UniProt P04133). The description is as above.
Experiment [6] addresses hexon of Ad5.10 (Ad5 vector, hexon HVR1 replaced with the HVR1 of Ad6 hexon), on the virion (human adenovirus type 5) (UniProt P04133). Nature of the experiment: SPR; Biacore T200; about 300 to 5,000 RU of Ad virions immobilised on a CM5 chip, coagulation factors flowed over at four concentrations, 50 uL/min; 10 mM HEPES, 150 mM NaCl, 1 mM CaCl2, 0.5 mM MgCl2, 0.1% BSA, 0.05% polysorbate 20, pH 7.4; global fit to a 1:1 kinetic interaction model, double referencing.

The target in experiment [7] is chimeric hexon of Ad5:H1.1 (Ad5 vector, hexon residues 112-593 from Ad1 hexon), on the virion (human adenovirus type 5 | human adenovirus type 1) (UniProt P04133). The description is as above.
Experiment [8] has as its target chimeric hexon of Ad5:H57.1 (Ad5 vector, hexon residues 112-593 from Ad57 hexon), on the virion (human adenovirus type 5 | human adenovirus type 57) (UniProt P04133). The description is as above.
The target of experiment [9] is chimeric hexon of Ad5:H6.1 (Ad5 vector, hexon residues 112-593 from Ad6 hexon), on the virion (human adenovirus type 5 | human adenovirus type 6) (UniProt P04133). Described as above.
In experiment [10] the target is chimeric hexon of Ad5:H1.2 (Ad5 vector, hexon residues 112-593 from Ad1 hexon, HVR7 IGVTRTY), on the virion (human adenovirus type 5 | human adenovirus type 1) (UniProt P04133). The experiment is described as above.

Turning to “mouse coagulation factor X (from UniProt O88947 41-481) (natural protein)”, the Kd in [1] came out at 0.00037 µM; in experiment [2], 0.00065 µM; in experiment [3], 0.005 µM; in [4], 0.00031 µM; in experiment [5], 0.00031 µM; in experiment [6], 0.00058 µM. For the same substance, the Kd in experiment [7] is 0.00082 µM; in experiment [8] it was 0.00065 µM; in [9], 0.00031 µM; in experiment [10] it was 0.005 µM. Further, the koff in experiment [1] is 0.000115 s⁻¹; in experiment [2] it was 9.23e-05 s⁻¹; in experiment [3], 0.00084 s⁻¹; in experiment [4], 7.73e-05 s⁻¹; in experiment [5] it was 3.78e-05 s⁻¹. The kon in experiment [1] was determined as 310000 M⁻¹ s⁻¹; in experiment [2], 143000 M⁻¹ s⁻¹; in experiment [3], 169000 M⁻¹ s⁻¹; in experiment [4], 253000 M⁻¹ s⁻¹; in experiment [5], 122000 M⁻¹ s⁻¹.

For the substance “mouse prothrombin (coagulation factor II) (from UniProt P19221 44-618) (natural protein)”, the dissociation constant Kd in experiment [1] turned out to be 0.42 µM; in experiment [2] it was 0.01 µM; in [3] it was 1.3 µM; in [4], 0.014 µM; in [5], 0.0086 µM; in [6], 0.356 µM. The Kd amounted to 0.016 µM in [7], 0.01 µM in [8], 0.0086 µM in experiment [9] and 1.3 µM in experiment [10]. Moreover, the off-rate constant (koff) is 0.026 s⁻¹ in [1]; 0.00031 s⁻¹ in [2]; 0.0483 s⁻¹ in [3]; 0.000687 s⁻¹ in experiment [4]; 0.000535 s⁻¹ in experiment [5]. For the same substance, the kon stood at 62400 M⁻¹ s⁻¹ in experiment [1]; 29800 M⁻¹ s⁻¹ in [2]; 36800 M⁻¹ s⁻¹ in [3]; 49800 M⁻¹ s⁻¹ in experiment [4]; 62200 M⁻¹ s⁻¹ in experiment [5].

As to “bovine coagulation factor X (from UniProt P00743 41-492) (natural protein)”, the dissociation constant Kd in [1] stood at 1.62 µM; in experiment [2] it was 0.028 µM; in experiment [3] it was 1.1 µM; in experiment [4] it was 0.16 µM; in experiment [5], 0.097 µM; in [6] it was 0.276 µM. Also, the Kd in experiment [7] turned out to be 0.22 µM; in [8], 0.028 µM; in [9] it was 0.097 µM; in [10] it was 1.1 µM. Further, the koff in experiment [1] came to 0.167 s⁻¹; in [2], 0.00342 s⁻¹; in experiment [3] it was 0.085 s⁻¹; in experiment [4], 0.0381 s⁻¹; in experiment [5], 0.0132 s⁻¹. Moreover, the kon in experiment [1] is 104000 M⁻¹ s⁻¹; in experiment [2] it was 121000 M⁻¹ s⁻¹; in experiment [3], 77400 M⁻¹ s⁻¹; in experiment [4], 232000 M⁻¹ s⁻¹; in [5], 135000 M⁻¹ s⁻¹.

Consider “human coagulation factor X (from UniProt P00742 41-488) (natural protein)”, for which the Kd amounted to 0.00094 µM in experiment [1]; 0.058 µM in experiment [2]; 0.65 µM in experiment [3]; 0.22 µM in experiment [4]; 0.043 µM in [5]; 0.0011 µM in experiment [6]. The Kd in experiment [7] came to 0.3 µM; in [8], 0.058 µM; in [9], 0.043 µM; in experiment [10], 0.65 µM. The koff in experiment [1] is 0.000127 s⁻¹; in experiment [2], 0.00316 s⁻¹; in experiment [3], 0.0631 s⁻¹; in experiment [4], 0.0501 s⁻¹; in experiment [5] it was 0.00914 s⁻¹. In addition, the association rate constant (kon) in experiment [1] came out at 135000 M⁻¹ s⁻¹; in experiment [2], 54300 M⁻¹ s⁻¹; in [3] it was 97200 M⁻¹ s⁻¹; in experiment [4], 232000 M⁻¹ s⁻¹; in [5] it was 214000 M⁻¹ s⁻¹.
